The values below come from the DeepSol protein solubility set.

The data set in a line: soluble on expression in E. coli; label from the status in PepcDB or PDB records.
Consider “MSLKNPLKLCGIEFTEYATPDSDFMEKAFYGFGFSKTKKMKGRDVEYFNQNDIHFLLNKEKAGFSKEFAKSHGPAICSMGWRVEDANFAFNEAVKRGAKSAENEANKLPYPAIFGIGDSLIYFIENFAKTGTNKGLIYDTDFEDIAEPVIVEDKGFLAVDHLTNNVYQGTMHKWADFYKDVFGFTEVRYFDIKGVKTALISYALASPCGKFCIPINEGKGSKDNQIDEYLNEYNGPGVQHLAFITDDLVGSLDKLDRSIVDTLNIVPEYYDEIFDRVPWVKEDKARIKEHQILVDSQSEDSYLLQIFTKNLFGPIFIEMIQRVDDQGFGEGNFSTLFKSIELNQMERGEGHHHHHH”, for which the “soluble on expression in E. coli” value is “soluble”.
On to “MIHETAQIHPTSVVEEGAIIGANVKIGPFCFVDSKVEIGEGTELLSHVVVKGPTKIGRFNRIFQFASIGEACQDLKYAGEDTQLIIGDRNTIRESVTMHRGTVQDKGITIVGSDNLFMINAHVAHDCVIGDRCIFANNATLAGHVKVGNQAIVGGMSAIHQFCHIGDHCMLGGGSIVVQDVPPYVMAQGNHCAPFGINVEGLKRRGFDKAEIHAIRRAYKSLYRNGLTLEAAKAEIAQEAEQYPSVKLFLDFLEKSERGIIR”, for which the “soluble on expression in E. coli” value is recorded as “not soluble”.
On to “GALPDPVKPKAPKAVNPFHLGMAGYTFVNFDLDTTLKTLERLDIHYLCIKDFHLPLNSTDEQIRAFHDKCAAHKVTGYAVGPIYMKSEEEIDRAFDYAKRVGVKLIVGVPNYELLPYVDKKVKEYDFHYAIHLHGPDIKTYPDATDVWVHTKDLDPRIGMCLDVGHDLRNGCDPVADLKKYHTRVFDMHIKDVTDSSKAGVGIEIGRGKIDFPALIRMMREVNYTGMCSLEYEKDMKDPFLGIAESIGYFKAVSDLT”, for which the “soluble on expression in E. coli” value was “soluble”.
On to “MGSDKIHHHHHHMSKVIITCAVTGAIHTPSMSRYLPVTPEEIIEASVGAAEAGAAIIHLHARDPVTGKPDQSPDAFGRFLPQIKARTDAVLNITSGGSPYMTIEERIQPSMRFAPEVASLNMGSMNFALFPMLARFKEFKHAWEREALEASRDLIFRNTFKDIEYALAQCAANDTRFEFECYDVGHLYNLAHFVERGLVKAPFFVQTVFGILGGIGTHPEDVSHMKRTADRLFGNDYRWSVLGAGKDQLRLAGMSASMGGNVRVGLEDSLWLGRGTLAESNAAQVRQARQIIEGLGLEIASPNEAREILQLKGIEKVKF”, for which the “soluble on expression in E. coli” value is given as “not soluble”.
On to “MPISYCVSAKKASVVVESVVGNFTGHENVNLIVARGNRIDVQLVSPEGLKNVCEIPIYGQVLTIALVKCKRDKRHSLIVVTEKWHMAILAYRDGKVVTRAAGCIADPTGRATDNLFSLTIHRNGLIAIRAFEGSVKMIQWESGTDLRHFNVRFDYPNVSDFKFVDTGEDDVYRVAFIYDDDHGKHLQFSDLNMHDKEFRTYSRQASIAADSSVLIPVPHAIGGVIVLGSNSVLYKPNDNLGEVVPYTCSLLENTTFTCHGIVDASGERFLLSDTDGRLLMLLLNVTESQSGYTVKEMRIDYLGETSIADSINYIDNGVVFVGSRLGDSQLIRLMTEPNGGSYSVILETYSNIGPIRDMVMVESDGQPQLVTCTGADKDGSLRVIRNGIGIDELASVDLAGVVGIFPIRLDSNADNYVIVSLSDETHVLQITGEELEDVKLLEINTDLPTIFASTLFGPNDSGIILQATEKQIRLMSSSGLSKFWEPTNGEIISKVSVNAANGQIVLAARDTVYLLTCIVDEMGALDIQLTAEKKFENEIACLDLSNEGDDPNNKATFLVLAFWSTFAMEVIQLPDLITVCHTDLPTKIIPRSIIATCIEEVHYLLVAFGDGALVYYVFDIKTGTHGEPKKSNVGTRPPSLHRVRNKNRQHLFVCSDRPVIIFSASKKLVFSNVNVKLVDTVCSLSSSAYRDCLVISDGNSMVFGTVDDIQKIHVRSIPMGESVLRIAYQKSTSTYGVCSNRTESKAERVFASKNALVTSQSRPKVASTRADMDESPPNTTSSFMVLDQNTFQVLHSHEFGPWETALSCISGQFTNDSSTYYVVGTGLIYPDETETKIGRIVVFEVDDVERSKLRRVHELVVRGSPLAIRILNGKLVAAINSSIRLFEWTTDKELRLECSSFNHVIALDLKVMNEEVAVADVMRSVSLLSYRMLEGNFEEVAKDWNSQWMVTCEFITAESILGGEAHLNLFTVEVDKTRPITDDGRYVLEPTGYWYLGELPKVMTRSTLVIQPEDSIIQYSQPIMFGTNQGTIGMIVQIDDKWKKFLIAIEKAIADSVKNCMHIEHSSYRTFVFQKRAEPPSGFVDGDLVESILDMDRSVAMDILSKVSDKGWDPSLPRDPVEILKVIEDLARMH”, for which the “soluble on expression in E. coli” value was “not soluble”.
For “MSLIYTLTLNPSVDYKIVLKEFQEESLNYALNNNFFAGGKGINVSTVLKNLGKPSTALGFLGGFTGDYIRFSLDSRGIKNDFIKIKYDTRLNIKMIANGRETEINANSPDISENEFELLKNKLKNLANNSTLVMSGSVPAALGEDAYNEIANSISNDVKLIIDTSGKPLRKILRLNPFLIKPNIYELEDLFNAKFDSTKELIKIGKNLVESGVQNIIISMGSDGAIFIGGKNVAFRAFVPKINFVSTIGAGDSVIAGFVYAFDNGSTLEDSFKFGVAAGTATALKGNLCEFQDVKKMLCQIRVEDIYTSEGHHHHHH”, the “soluble on expression in E. coli” value was “soluble”.
As to “MSTESSHQVHTATVPVRWTDFDRFGHVTNSAYVDLAQEARTVWANDNFAVKGHQIPAVFVRHIEVDYLRPIMPSTSQVVVETEVVHIGNTSFTTRQHLKDGEGHVCATVIAVQVAVDMLTTRPRAIAAHELQVLTQFAASTQQESEQ”, the “soluble on expression in E. coli” value was “not soluble”.
As for “MSLTPRFIDLHTHTTASDGSDSPADLVRKATEAGLAAVAVTDHDTVAGLDEAVAMGHETGIEVVRGCELGVRSEYGEIHILGLWLPEKPETLLDAMKELRRHRNERNERIVDNLRTLGMDITYEEVRALSGGVSVGRPHIALALLRHGYIRTPQEAFDRFIGPGAPAYAPKKVFSPAEGVRLLASCGATVAIAHPMLLRCPEEWLDDTVADLKVAGLDAIEAYHSEHSHKDERRCVDIADRHGLVLTGGSDYHGKAKPAISLGRGRGGLRVTTHVLDNLKRHRRERGLEGHHHHHH”, the “soluble on expression in E. coli” value is listed as “soluble”.
Consider “MAEETPPIVELAEWFQTPPGQYVLAWEQAQFDEAVADIFGYYAWQVGLAEPNLLRANRMPFKAWVGAGVPPPELAQGWQACVAAAPEALPFESQSVDLLVLPHAFECAEAPHLVLREVERVLVPEGRVVISGFNPWSLWGARNLMPGMEAWLPLPLSAQVALPRLKDWFKLLSFEVERGRFGCYAPACRTDKWLRRWRFMERYGQRWWGLGGAVYVVTATKKVAAMRLIGPAWKTRRKRAQAASVVVNRQADDPGRLEHHHHHH”, for which the “soluble on expression in E. coli” value is listed as “not soluble”.
For the sequence “MGSDKIHHHHHHMAKNKQEDIFDAAMQLFAERGYDGTTIPMIAEKAKVGAGTIYRYFENKEALVNSLFSKSMLQLSEMIKTDFPVEANIREQFSHTYNRLFEFARNNVDAFLFTNSHCDSYFLDEQSKKIFDDFIGFFMNIIEDGIVKGLLRPLPPVALIIIVYQPLEKLIKVIATGQLEYSKELVKELEESSWNAIRII”, the “soluble on expression in E. coli” value is listed as “not soluble”.
With “MSLDSPTASSNGDLIEEIQASSTSTDPRTFTGLSIVEDIGDVVPVTDNASPALPVSLTDADGNDVVVEDVSRILPLDLYGTYSKTIAGLGLVDNIVGRTVSSTEPALADTEVVTTGGHTLNAEAILNLHPTLVIIDHSIGPREVIDQIRAAGVATVIMSPQRSIASIGDDIRDIASVVGLPEEGEKLAERSVAEVEEASTVVDELTPEDPLKMVFLYARGTGGVFFILGDAYGGRDLIEGLGGVDMAAEKGIMDLAPANAEALAELNPDVFVMMSEGLVSTGGIDGLMERPGIAQTTAGQNQRVLALPDGQSLAFGAQTGELLLRASRELYVQGGEGHHHHHH”, the “soluble on expression in E. coli” value is “soluble”.
“MGLSATIMEAEPEGRKRPGSRAIYFHKATLIHLESIFPGLGYTLAKNGLVWPIKRTFFRGKEVFVKDYGPTDPNQLPPFTSLPQDRAEQFMFDACLQAGVEFVWKTPIRQVETSPAGATLTTKAGDVWSADYVIGADGARSSVRTTAGMKLEGPRTNDTFLVVDVKEDEESPLPLERVFHYEHPAMGGRNVMFVPFVGGWRVDLQLLEHDDPEEYSHPEGVRRWIQKVMPAKYGERVTWVSTYRFHQVVADSFTDQHGKVLLAGEAAHLFAPFGARGLNSGTPDAIKAAQGIHTALSARDDQAAKQAIFAAAHERRIAALWNRDCSSTALEHLQGLEHHHHHH”: the “soluble on expression in E. coli” value was “not soluble”.
In the case of “MGSDKIHHHHHHMNDEVSKNISLSDFEPYFKEDYFREDYFYFDNAVNSPETSDRQAGVIWNLLSLGQGSSVLELGCGYGRITNRLAKKGAHVVGLDISPILLKEAETDAAERGVKVEYVLGDMRSLPWRDRFDAAFLWYTTFGYFDDADNERVLREAASSLRKGGRLLIDHPNRIDFLRHKSPVCYVTQRNNDVRIDMFSNDVLSDRSNLERLIVRDGCVRRTHLSFRQYGVSEYVRMLRSAGFETVEAYGQEGEAFTSDSSRLVVVACK” it was “not soluble”.
Consider “MSLKYKNLFFDLDDTIWAFSRNARDTFEEVYQKYSFDRYFDSFDHYYTLYQRRNTELWLEYGEGKVTKEELNRQRFFYPLQAVGVEDEALAERFSEDFFAIIPTKSGLMPHAKEVLEYLAPQYNLYILSNGFRELQSRKMRSAGVDRYFKKIILSEDLGVLKPRPEIFHFALSATQSELRESLMIGDSWEADITGAHGVGMHQAFYNVTERTVFPFQPTYHIHSLKELMNLLEGHHHHPPLIRIRAPSTSLRPHSSTTTTTTEIRLLTKPERKLSWLLPPLSNN”, for which the “soluble on expression in E. coli” value is given as “soluble”.
Regarding “MTQHFPTRQLRFFLTAPTPCPYLPGREERKVFAHLPLSDGPIVNDSLTQVGFRRSQNIAYRPACETCRACQSARAPATEYILSRSERKILGRNDDLERHLVEAEATLEQFELLRRYLLTRHADGGMAEMTWPDYVAMVEDTAVRTHLIEYRRKSLDRGPGDLVACVLVDVLADGLSLVYSFYEPDQPRRSLGSFIILDHIVQAQQNALPYVYLGYWVPGSEKMAYKARFSPLEILKPGGWSLMSARERGARPPRGPGALKDACDLPLSDAQPADIEDLDLEHHHHHH”, the “soluble on expression in E. coli” value is “not soluble”.
In the case of “MYTKNFSNSRMEVKGNNGCSAPIIRKPFKHIVLTVPSSDLDNFNTVFYVQPQYINQALHLANAFQGAIDPLNLNFNFEKALQIANGIPNSAIVKTLNQSVIQQTVEISVMVEQLKKIIQEVLGLVINSTSFWNSVEATIKGTFTNLDTQIDEAWIFWHSLSAHNTSYYYNILFSIQNEDTGAVMAVLPLAFEVSVDVEKQKVLFFTIKDSARYEVKMKALTLVQALHSSNAPIVDIFNVNNYNLYHSNHKIIQNLNLSN” it was “soluble”.
“MSPNPVEKAAILRIIDSIDARDDDYCAHEFNVYRWLVAYGNEEEEAAKALKRHLNIRKTIDLNSYSSKTELEEDELNKYVPIDVIGQNHQDDNKVLMFERTGKIDISGLVDNVLMHKFMQIKLKMMEGVHQKVVAAERKTGRQSGGLFIMDLDGISFSPKLISVLTGPYRIMWGTLFDHYPQLLQKIIIVNAPSFVNVLHQACSPFLPEDYKEKIVITSEPAIGAIQKHADKCFLPSDLGGDLEKTTSLPMAPFPKMNKKYEKEKEKVSLLAISVPAGKYTVQKFSWKKGDEVEFFLHNESSFHYFMFHSEEDTKDMDLWREMTVGCERPALSQIDSWKYTVPIDGFYFIRYGNHNSWYFSTTVNVNHFISNENGERIELVPIETFNI”: the “soluble on expression in E. coli” value is “not soluble”.
On to “GSHVFKSRLQEYAQKYKLPTPVYEIVKEGPSHKSLFQSTVILDGVRYNSLPGFFNRKAAEQSAAEVALRELAK”, for which the “soluble on expression in E. coli” value is listed as “soluble”.
In the case of “MERKINRREKEKEYEGKHNSLEDTDQGKNCKSTLMTLNVGGYLYITQKQTLTKYPDTFLEGIVNGKILCPFDADGHYFIDRDGLLFRHVLNFLRNGELLLPEGFRENQLLAQEAEFFQLKGLAEEVKSRWEKEQLTPRETTFLEITDNHDRSQGLRIFCNAPDFISKIKSRIVLVSKSRLDGFPEEFSISSNIIRFKYFIKSENGTRLVLKEDNTFVCTLETLKFEAIMMALKCGFRLLTSLDCSKGSIVHSDALHFIK” it was “soluble”.
